From patent publication US20040019193A1, “Mob-5/hmob-5 as a cancer diagnostic marker” (priority 2002, published 2004) come the findings set out here.

The test system of one test is Rat-1 cells. Nature of the test: Over expression of Mob-5 in Rat-1 cells, morphological transformation. It is filed as cell-based. To be noted: retroviral over expression of Mob-5 alone in Rat-1 cells. From the text:
Over expression of the full length mob-5 cDNA with retroviral vector in a variety of rodent fibroblasts including Rat-1 cells led to high level secretion of Mob-5 protein with a predicted MW of 23 KD into the culture media, which could be readily detected by western blot using polyclonal antibody directed against the recombinant Mob-5 (FIG. 4A).
Construction of mob-5 mammalian expression construct A 680-bp BspHI-Bgl II restriction fragment containing the entire coding region of mob-5 was generated by PCR using cloned mob-5 cDNA as a template. The targeting construct was subsequently inserted between the Nco I and Bam I sites of retroviral vector pMFG-S (Danos and Mulligan, 1988; Dranoff, G. et al. 1993) and sequenced to ensure the sequence accuracy.
Transfection and Retroviral Infection Recombinant plasmids were transfected into target cells by the standard calcium phosphate precipitation method. For retroviral packaging, pMFG-S-Mob-5 was cotransfected with pCMV-Neo vector at a rate of 10:1 (10 μg of pCMV-S-rMob-5: 1 μg of pCMV-Neo) into the CRIP packaging cells to produce G418 (1 mg/ml) resistant stable cell lines. Retroviral infection was carried out essentially as described previously (Zhang et al., 1998). […]

For test [1], the system named is putative Mob-5 receptor on the cell surface of h-ras transformed RIE cells. The experiment in a line: AP fusion protein receptor binding assay on RIE cells before and after h-ras transformation. Details: species or system rat. To be noted: normal versus h-ras transformed RIE cells, media at 0.7 unit/ml. The procedure:
(E) Mob-5-AP, but not hMob-5-AP, binds specifically to the cell surface of oncogenic h-ras transformed RIE cells. Both the normal and oncogenic h-ras transformed RIE cells were analyzed for the ability to bind Mob-5-AP versus AP alone. The same experiment was carried out with hMob-5-AP and AP alone. The cell surface bound AP activity was measured to reveal a species specific Mob-5 binding activity present only on the cell surface of the h-ras transformed RIE cells. The result is representative of at least 3 independent experiments.
As in Rat-1 cells, the putative Mob-5 receptor was also found to be differentially expressed between the normal and h-ras transformed RIE cells using Mob-5-AP fusion protein as a ligand (FIG. 4E, left panel). To determine whether hMob-5-AP could also differentially bind to the cell surface of h-ras transformed RIE cells, the receptor binding assay was conducted using hMob-5-AP in place of Mob-5-AP.
mob-5 expression is activated by both oncogenic h-ras and k-ras in intestinal epithelial cells Cancer arises from the epithelial cells rather than fibroblasts and K-ras mutations have been tightly linked with cancers of gastric intestinal origins (Kiaris and Spandidos, 1995). […] After the final 5 min extension at 72 ° C., the RT-PCR products were analyzed on a 1.5 % agarose gel. […]

For another test, the target named is T1, hMob-5 (Homo sapiens, UniProt Q13007).
T1 sequence (Q13007 1-207 isoform Q13007-2): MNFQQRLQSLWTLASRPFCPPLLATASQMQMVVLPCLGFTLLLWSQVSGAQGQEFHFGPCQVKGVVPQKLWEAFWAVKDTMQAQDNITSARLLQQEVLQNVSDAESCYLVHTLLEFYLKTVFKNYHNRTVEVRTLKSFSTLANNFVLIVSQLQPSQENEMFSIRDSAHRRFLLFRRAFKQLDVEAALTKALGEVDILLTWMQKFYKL
Nature of the test: GBA bead capture ELISA for Mob-5, standard curve. The procedure: This allows the use of GBA in a method for detecting Mob-5 in an ELISA. GBA is utilized to capture the antigen (i.e. Mob-5) and a biotinylated monoclonal antibody to Mob-5 is used to detect the antigen. The use of GBA allows for higher capacity and lower costs when compared to the traditional ELISA method. The method is performed by diluting a biotinylated Mab-hMob-5 (for example, the monoclonal antibody produced from hybridoma clone L-14) 1:500 in PBST (Phosphate Buffered Saline, Tween 0.05%); diluting Streptavidin-HRP (Sigma) 1:500 in PBST; mixing the diluted Mab-hMob-5 with the diluted Streptavidin-HRP in equal volume (for example, […]); letting the mixture sit for 5-10 minutes; washing the GBA beads with PBST twice; spinning and removing the upper liquid phase with an aspirator; resuspending the washed GBA beads in PBST as a 50% suspension; mixing […] of a sample with 100 ml of the diluted Mab-hMob-5 and Streptavidin-HRP mixture in a tube; adding […] of resuspended GBA beads to the tube; allowing the tube to rotate on a roller for 1-2 hours; spinning down the GBA beads for 2 minutes; aspirating the supernatant; washing the beads with 1 ml of PBST twice; washing the beads with dH20 twice; removing the supernatant; adding […] of horseradish peroxidase (HRP) substrate with H2O2 to resuspend the beads; allowing the color to develop in the dark for as long as needed (from hours, to days or weeks). A hMob-5-9×His medium can be utilized as a positive control. One skilled in the art would know that variations of this protocol are possible. For example, the GBA beads may be added to the sample prior to the addition of the biotinylated Mab/streptavidin-HRP mixture, alkaline phosphatase labeled streptavidin can be used, wash times may vary, spin times may vary and development times may vary. By utilizing this method, representative results for a standard curve were obtained.

B1: Mob-5: rat secreted protein of 183 amino acids, 23 KD, encoded by oncogenic ras target gene mob-5 (protein)
chain: PELQGQEFRFGPCQVTGVVLPELWEAFWTVKNTVKTQDELTSVRLLKPQVLQNVSDAESCYLAHSLLKFYLNTVFKNYHSKIVKFKVLKSFSTLANNFLVIMSKLQPSKDNAMLPISDSARRRFLLYHRTFKQLDIEVALAKAFGEVDILLAWMQNFYQL
With B1, the “morphological transformation on over expression” value in the test with Rat-1 cells was “did not lead to any obvious morphological transformation”.

B2: hMob-5-AP: human Mob-5 fused at the C-terminus with alkaline phosphatase, 90 KD (SEQ ID NO: 10) (protein)
chain: MNFQQRLQSLWTLASRPFCPPLLATASQMQMVVLPCLGFTLLLWSQVSGAQGQEFHFGPCQVKGVVPQKLWEAFWAVKDTMQAQDNITSARLLQQEVLQNVSDAESCYLVHTLLEFYLKTVFKNYHNRTVEVRTLKSFSTLANNFVLIVSQLQPSQENEMFSIRDSAHRRFLLFRRAFKQLDVEAALTKALGEVDILLTWMQKFYKLGSSGIIPVEEENPDFWNREAAEALGAAKKLQPAQTAAKNLIIFLGDGMGVSTVTAARILKGQKKDKLGPEIPLAMDRFPYVALSKTYNVDKHVPDSGATATAYLCGVKGNFQTIGLSAAARFNQCNTTRGNEVISVMNRAKKAGKSVGVVTTTRVQHASPAGTYAHTVNRNWYSDADVPASARQEGCQDIATQLISNMDIDVILGGGRKYMFPMGTPDPEYPDDYSQGGTRLDGKNLVQEWLAKRQGARYVWNRTELMQASLDPSVTHLMGLFEPGDMKYEIHRDSTLDPSLMEMTEAALRLLSRNPRGFFLFVEGGRIDHGHHESRAYRALTETIMFDDAIERAGQLTSEEDTLSLVTADHSHVFSFGGYPLRGSSIFGLAPGKARDRKAYTVLLYGNGPGYVLKDGARPDVTESESGSPEYRQQSAVPLDEETHAGEDVAVFARGPQAHLVHGVQEQTFIAHVMAFAACLEPYTACDLAPPAGTTDAAHPG
As to B2, in test [1], the “cell surface binding (bound AP activity) versus AP alone” value is recorded as “did not exhibit any preferential cell surface binding”.

B3: hMob-5: human homolog of Mob-5, secreted protein over expressed in colon cancer (protein)
chain: T1 sequence (Q13007 1-207 isoform Q13007-2)
As to B3, the OD405 with hMob-5 (hMob-5 2 ng/ml) was 0.216; with hMob-5 (hMob-5 10 ng/ml), 0.941; with hMob-5 (hMob-5 20 ng/ml) it was 1.881.
